# Laboratory results as given in patent US20150344570A1 (published 2015).
# B1: GpH7-B3 variant A330_05P/GpL16-k0 (antibody, human IgG1, kappa)
# heavy: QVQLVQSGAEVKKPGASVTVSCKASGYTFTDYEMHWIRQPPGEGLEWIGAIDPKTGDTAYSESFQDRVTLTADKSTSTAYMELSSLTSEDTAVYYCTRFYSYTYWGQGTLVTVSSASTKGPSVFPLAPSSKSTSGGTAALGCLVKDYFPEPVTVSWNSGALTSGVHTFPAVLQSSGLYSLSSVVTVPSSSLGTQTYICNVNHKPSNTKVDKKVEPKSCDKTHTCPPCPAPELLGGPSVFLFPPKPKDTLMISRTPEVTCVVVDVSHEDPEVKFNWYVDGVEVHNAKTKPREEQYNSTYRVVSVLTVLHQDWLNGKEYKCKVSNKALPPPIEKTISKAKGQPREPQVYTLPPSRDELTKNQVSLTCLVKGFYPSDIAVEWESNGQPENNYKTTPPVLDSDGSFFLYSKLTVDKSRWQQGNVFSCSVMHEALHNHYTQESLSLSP
# light: DIVMTQSPLSLPVTPGEPASISCQASESLVHSNRNTYLHWYLQKPGQSPQLLIYKVSNRFSGVPDRFSGSGSGTDFTLKISRVEAEDVGVYYCSQNTHVPPTFGQGTKVEIERTVAAPSVFIFPPSDEQLKSGTASVVCLLNNFYPREAKVQWKVDNALQSGNSQESVTEQDSKDSTYSLSSTLTLSKADYEKHKVYACEVTHQGLSSPVTKSFNRGEC
# notes: both H chains altered; also called Ho Ab A330_05P
# B2: GpH7-B3 variant A330_07I/GpL16-k0 (antibody, human IgG1, kappa)
# heavy: not shown
# light: B1 light
# notes: both H chains altered; also called Ho Ab A330_07I
# B3: GpH7-B3 variant E333_02A/GpL16-k0 (antibody, human IgG1, kappa)
# heavy: not shown
# light: B1 light
# notes: both H chains altered; also called Ho Ab E333_02A
# B4: GpH7-B3 variant E333_03V/GpL16-k0 (antibody, human IgG1, kappa)
# heavy: not shown
# light: B1 light
# notes: both H chains altered; also called Ho Ab E333_03V
# B5: GpH7-B3 variant E333_04F/GpL16-k0 (antibody, human IgG1, kappa)
# heavy: not shown
# light: B1 light
# notes: both H chains altered; also called Ho Ab E333_04F
# B6: GpH7-B3 variant E333_13S/GpL16-k0 (antibody, human IgG1, kappa)
# heavy: not shown
# light: B1 light
# notes: both H chains altered; also called Ho Ab E333_13S
# B7: GpH7-B3 variant E333_20W/GpL16-k0 (antibody, human IgG1, kappa)
# heavy: not shown
# light: B1 light
# notes: both H chains altered; also called Ho Ab E333_20W
# B8: GpH7-B3 variant G236_15Y/GpL16-k0 (antibody, human IgG1, kappa)
# heavy: not shown
# light: B1 light
# notes: both H chains altered; also called Ho Ab G236_15Y
# B9: GpH7-B3 variant G236_20W/GpL16-k0 (antibody, human IgG1, kappa)
# heavy: not shown
# light: B1 light
# notes: both H chains altered; also called Ho Ab G236_20W
# B10: GpH7-B3 variant H268_18N/GpL16-k0 (antibody, human IgG1, kappa)
# heavy: not shown
# light: B1 light
# notes: both H chains altered; also called Ho Ab H268_18N
# B11: GpH7-B3 variant I332_06M/GpL16-k0 (antibody, human IgG1, kappa)
# heavy: not shown
# light: B1 light
# notes: both H chains altered; also called Ho Ab I332_06M
# B12: GpH7-B3 variant I336_08L/GpL16-k0 (antibody, human IgG1, kappa)
# heavy: not shown
# light: B1 light
# notes: both H chains altered; also called Ho Ab I336_08L
# B13: GpH7-B3 variant L234_04F/GpL16-k0 (antibody, human IgG1, kappa)
# heavy: not shown
# light: B1 light
# notes: both H chains altered; also called Ho Ab L234_04F
# B14: GpH7-B3 variant L234_07I/GpL16-k0 (antibody, human IgG1, kappa)
# heavy: not shown
# light: B1 light
# notes: both H chains altered; also called Ho Ab L234_07I
# B15: GpH7-B3 variant L234_09D/GpL16-k0 (antibody, human IgG1, kappa)
# heavy: not shown
# light: B1 light
# notes: both H chains altered; also called Ho Ab L234_09D
# B16: GpH7-B3 variant L234_15Y/GpL16-k0 (antibody, human IgG1, kappa)
# heavy: not shown
# light: B1 light
# notes: both H chains altered; also called Ho Ab L234_15Y
# B17: GpH7-B3 variant L234_20W/GpL16-k0 (antibody, human IgG1, kappa)
# heavy: not shown
# light: B1 light
# notes: both H chains altered; also called Ho Ab L234_20W
# B18: GpH7-B3 variant P238_09D/GpL16-k0 (antibody, human IgG1, kappa)
# heavy: not shown
# light: B1 light
# notes: both H chains altered; also called Ho Ab P238_09D
# B19: GpH7-B3 variant P238_10E/GpL16-k0 (antibody, human IgG1, kappa)
# heavy: not shown
# light: B1 light
# notes: both H chains altered; also called Ho Ab P238_10E
# B20: GpH7-B3 variant P271_01G/GpL16-k0 (antibody, human IgG1, kappa)
# heavy: not shown
# light: B1 light
# notes: both H chains altered; also called Ho Ab P271_01G
# B21: GpH7-B3 variant S324_02A/GpL16-k0 (antibody, human IgG1, kappa)
# heavy: not shown
# light: B1 light
# notes: both H chains altered; also called Ho Ab S324_02A
# B22: GpH7-B3 variant S337_04F/GpL16-k0 (antibody, human IgG1, kappa)
# heavy: not shown
# light: B1 light
# notes: both H chains altered; also called Ho Ab S337_04F
# B23: GpH7-B3 variant S337_14T/GpL16-k0 (antibody, human IgG1, kappa)
# heavy: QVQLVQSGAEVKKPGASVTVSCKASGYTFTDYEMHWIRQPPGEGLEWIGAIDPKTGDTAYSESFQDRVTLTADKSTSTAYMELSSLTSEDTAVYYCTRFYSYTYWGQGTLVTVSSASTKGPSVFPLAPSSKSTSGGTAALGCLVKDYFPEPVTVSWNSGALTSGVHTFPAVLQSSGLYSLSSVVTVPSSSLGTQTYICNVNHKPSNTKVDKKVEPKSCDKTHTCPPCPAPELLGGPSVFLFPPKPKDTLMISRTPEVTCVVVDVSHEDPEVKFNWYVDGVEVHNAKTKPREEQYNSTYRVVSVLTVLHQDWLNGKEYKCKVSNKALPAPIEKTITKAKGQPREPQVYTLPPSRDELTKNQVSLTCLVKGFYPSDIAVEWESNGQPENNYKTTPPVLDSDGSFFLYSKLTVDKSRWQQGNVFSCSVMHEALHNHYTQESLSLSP
# light: B1 light
# notes: both H chains altered; also called Ho Ab S337_14T
# B24: GpH7-B3 variant S337_15Y/GpL16-k0 (antibody, human IgG1, kappa)
# heavy: not shown
# light: B1 light
# notes: both H chains altered; also called Ho Ab S337_15Y
# B25: GpH7-B3 variant S337_20W/GpL16-k0 (antibody, human IgG1, kappa)
# heavy: not shown
# light: B1 light
# notes: both H chains altered; also called Ho Ab S337_20W
# B26: GpH7-B3 variant T335_13S/GpL16-k0 (antibody, human IgG1, kappa)
# heavy: not shown
# light: B1 light
# notes: both H chains altered; also called Ho Ab T335_13S
# B27: GpH7-B3 variant T335_15Y/GpL16-k0 (antibody, human IgG1, kappa)
# heavy: not shown
# light: B1 light
# notes: both H chains altered; also called Ho Ab T335_15Y
# B28: GpH7-B3 variant T335_16H/GpL16-k0 (antibody, human IgG1, kappa)
# heavy: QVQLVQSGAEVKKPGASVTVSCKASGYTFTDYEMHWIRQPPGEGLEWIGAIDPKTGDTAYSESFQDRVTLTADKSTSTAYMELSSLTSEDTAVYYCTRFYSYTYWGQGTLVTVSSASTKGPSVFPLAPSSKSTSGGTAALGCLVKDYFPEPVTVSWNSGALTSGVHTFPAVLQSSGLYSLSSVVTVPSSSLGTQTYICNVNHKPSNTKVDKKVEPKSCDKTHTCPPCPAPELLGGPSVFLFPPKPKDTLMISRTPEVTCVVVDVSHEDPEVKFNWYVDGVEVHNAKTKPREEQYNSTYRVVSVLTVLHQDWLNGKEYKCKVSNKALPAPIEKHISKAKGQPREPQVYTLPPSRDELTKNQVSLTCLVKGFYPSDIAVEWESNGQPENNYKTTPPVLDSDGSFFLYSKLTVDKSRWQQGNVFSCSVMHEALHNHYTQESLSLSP
# light: B1 light
# notes: both H chains altered; also called Ho Ab T335_16H
# B29: GpH7-B3 variant T335_19Q/GpL16-k0 (antibody, human IgG1, kappa)
# heavy: not shown
# light: B1 light
# notes: both H chains altered; also called Ho Ab T335_19Q
# B30: GpH7-B3 variant T335_20W/GpL16-k0 (antibody, human IgG1, kappa)
# heavy: not shown
# light: B1 light
# notes: both H chains altered; also called Ho Ab T335_20W
# B31: GpH7-B3 variant V266_08L/GpL16-k0 (antibody, human IgG1, kappa)
# heavy: not shown
# light: B1 light
# notes: both H chains altered; also called Ho Ab V266_08L
# B32: GpH7-B3 variant E333_09D/GpL16-k0 (antibody, human IgG1, kappa)
# heavy: not shown
# light: B1 light
# notes: both H chains altered; also called Ho Ab E333_09D
# B33: GpH7-B3 variant H268_02A/GpL16-k0 (antibody, human IgG1, kappa)
# heavy: not shown
# light: B1 light
# notes: both H chains altered; also called Ho Ab H268_02A
# B34: GpH7-B3 variant I332_01G/GpL16-k0 (antibody, human IgG1, kappa)
# heavy: not shown
# light: B1 light
# notes: both H chains altered; also called Ho Ab I332_01G
# B35: GpH7-B3 variant I336_02A/GpL16-k0 (antibody, human IgG1, kappa)
# heavy: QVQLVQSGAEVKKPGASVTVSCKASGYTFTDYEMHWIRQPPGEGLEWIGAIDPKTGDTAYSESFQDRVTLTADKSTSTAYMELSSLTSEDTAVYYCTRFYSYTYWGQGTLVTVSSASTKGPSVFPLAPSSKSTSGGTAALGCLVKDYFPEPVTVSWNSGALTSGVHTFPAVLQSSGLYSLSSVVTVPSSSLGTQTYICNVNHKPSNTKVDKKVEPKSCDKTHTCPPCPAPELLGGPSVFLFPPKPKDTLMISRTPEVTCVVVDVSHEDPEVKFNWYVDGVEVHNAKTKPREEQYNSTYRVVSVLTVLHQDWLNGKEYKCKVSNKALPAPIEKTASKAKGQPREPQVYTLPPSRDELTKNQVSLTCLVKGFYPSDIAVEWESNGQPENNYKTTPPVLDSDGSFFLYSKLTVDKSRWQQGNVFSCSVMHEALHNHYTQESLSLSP
# light: B1 light
# notes: both H chains altered; also called Ho Ab I336_02A
# B36: GpH7-B3 variant I336_03V/GpL16-k0 (antibody, human IgG1, kappa)
# heavy: not shown
# light: B1 light
# notes: both H chains altered; also called Ho Ab I336_03V
# B37: GpH7-B3 variant I336_06M/GpL16-k0 (antibody, human IgG1, kappa)
# heavy: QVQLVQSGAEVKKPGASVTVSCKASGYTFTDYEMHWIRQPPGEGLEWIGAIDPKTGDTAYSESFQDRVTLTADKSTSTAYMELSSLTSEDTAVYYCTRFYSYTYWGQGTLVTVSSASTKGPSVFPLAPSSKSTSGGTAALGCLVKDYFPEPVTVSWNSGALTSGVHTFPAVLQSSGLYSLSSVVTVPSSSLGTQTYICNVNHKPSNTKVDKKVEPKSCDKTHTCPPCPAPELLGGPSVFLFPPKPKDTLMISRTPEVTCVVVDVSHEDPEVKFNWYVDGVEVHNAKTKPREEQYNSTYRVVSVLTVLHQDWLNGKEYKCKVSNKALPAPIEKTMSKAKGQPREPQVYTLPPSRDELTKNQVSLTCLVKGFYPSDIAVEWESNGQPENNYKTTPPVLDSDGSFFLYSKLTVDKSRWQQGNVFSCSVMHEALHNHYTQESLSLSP
# light: B1 light
# notes: both H chains altered; also called Ho Ab I336_06M
# B38: GpH7-B3 variant I336_18N/GpL16-k0 (antibody, human IgG1, kappa)
# heavy: not shown
# light: B1 light
# notes: both H chains altered; also called Ho Ab I336_18N
# B39: GpH7-B3 variant K326_07I/GpL16-k0 (antibody, human IgG1, kappa)
# heavy: not shown
# light: B1 light
# notes: both H chains altered; also called Ho Ab K326_07I
# B40: GpH7-B3 variant K326_08L/GpL16-k0 (antibody, human IgG1, kappa)
# heavy: not shown
# light: B1 light
# notes: both H chains altered; also called Ho Ab K326_08L
# B41: GpH7-B3 variant K334_01G/GpL16-k0 (antibody, human IgG1, kappa)
# heavy: not shown
# light: B1 light
# notes: both H chains altered; also called Ho Ab K334_01G
# B42: GpH7-B3 variant K334_09D/GpL16-k0 (antibody, human IgG1, kappa)
# heavy: not shown
# light: B1 light
# notes: both H chains altered; also called Ho Ab K334_09D
# B43: GpH7-B3 variant Q295_14T/GpL16-k0 (antibody, human IgG1, kappa)
# heavy: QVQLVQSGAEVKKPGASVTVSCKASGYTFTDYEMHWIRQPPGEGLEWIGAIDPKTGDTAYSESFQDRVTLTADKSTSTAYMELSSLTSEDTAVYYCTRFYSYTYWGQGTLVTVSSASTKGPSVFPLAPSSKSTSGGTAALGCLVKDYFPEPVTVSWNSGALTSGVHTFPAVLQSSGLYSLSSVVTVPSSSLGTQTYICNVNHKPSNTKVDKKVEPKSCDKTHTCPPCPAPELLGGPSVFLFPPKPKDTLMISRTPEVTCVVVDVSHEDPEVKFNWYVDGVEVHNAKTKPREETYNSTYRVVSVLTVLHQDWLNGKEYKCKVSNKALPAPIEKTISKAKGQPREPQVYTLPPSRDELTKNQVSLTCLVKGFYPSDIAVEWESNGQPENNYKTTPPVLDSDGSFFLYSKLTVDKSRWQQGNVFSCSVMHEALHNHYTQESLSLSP
# light: B1 light
# notes: both H chains altered; also called Ho Ab Q295_14T
# B44: GpH7-B3 variant S267_02A/GpL16-k0 (antibody, human IgG1, kappa)
# heavy: not shown
# light: B1 light
# notes: both H chains altered; also called Ho Ab S267_02A
# B45: GpH7-B3 variant S267_09D/GpL16-k0 (antibody, human IgG1, kappa)
# heavy: not shown
# light: B1 light
# notes: both H chains altered; also called Ho Ab S267_09D
# B46: GpH7-B3 variant S298_14T/GpL16-k0 (antibody, human IgG1, kappa)
# heavy: not shown
# light: B1 light
# notes: both H chains altered; also called Ho Ab S298_14T
# B47: GpH7-B3 variant S324_15Y/GpL16-k0 (antibody, human IgG1, kappa)
# heavy: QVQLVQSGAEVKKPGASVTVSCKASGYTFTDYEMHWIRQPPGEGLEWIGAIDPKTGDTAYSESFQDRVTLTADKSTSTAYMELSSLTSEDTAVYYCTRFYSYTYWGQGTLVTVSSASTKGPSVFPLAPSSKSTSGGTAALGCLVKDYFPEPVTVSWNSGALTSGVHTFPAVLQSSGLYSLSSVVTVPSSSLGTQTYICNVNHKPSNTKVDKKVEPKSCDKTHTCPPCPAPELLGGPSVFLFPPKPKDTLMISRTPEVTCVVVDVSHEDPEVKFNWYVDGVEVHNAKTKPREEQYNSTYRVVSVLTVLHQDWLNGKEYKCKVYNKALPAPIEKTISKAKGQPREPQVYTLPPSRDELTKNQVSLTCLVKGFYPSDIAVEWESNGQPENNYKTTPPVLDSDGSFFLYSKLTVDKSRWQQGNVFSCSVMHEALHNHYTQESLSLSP
# light: B1 light
# notes: both H chains altered; also called Ho Ab S324_15Y
# B48: GpH7-B3 variant S324_16H/GpL16-k0 (antibody, human IgG1, kappa)
# heavy: not shown
# light: B1 light
# notes: both H chains altered; also called Ho Ab S324_16H
# B49: GpH7-B3 variant S337_09D/GpL16-k0 (antibody, human IgG1, kappa)
# heavy: not shown
# light: B1 light
# notes: both H chains altered; also called Ho Ab S337_09D
# B50: GpH7-B3 variant S337_10E/GpL16-k0 (antibody, human IgG1, kappa)
# heavy: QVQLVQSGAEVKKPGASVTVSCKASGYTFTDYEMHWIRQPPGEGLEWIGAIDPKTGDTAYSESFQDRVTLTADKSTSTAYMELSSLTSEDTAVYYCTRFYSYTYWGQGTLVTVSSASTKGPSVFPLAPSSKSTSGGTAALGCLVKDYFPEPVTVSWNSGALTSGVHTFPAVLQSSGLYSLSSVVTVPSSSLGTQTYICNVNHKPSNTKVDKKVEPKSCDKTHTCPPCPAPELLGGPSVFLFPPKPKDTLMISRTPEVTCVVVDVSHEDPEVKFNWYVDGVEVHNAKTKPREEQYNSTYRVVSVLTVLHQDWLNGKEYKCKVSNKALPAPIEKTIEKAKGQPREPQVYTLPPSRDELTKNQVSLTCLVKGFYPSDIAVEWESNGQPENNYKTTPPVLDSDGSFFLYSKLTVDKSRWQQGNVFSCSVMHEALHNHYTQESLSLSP
# light: B1 light
# notes: both H chains altered; also called Ho Ab S337_10E
# B51: GpH7-B3 variant S337_18N/GpL16-k0 (antibody, human IgG1, kappa)
# heavy: not shown
# light: B1 light
# notes: both H chains altered; also called Ho Ab S337_18N
# B52: GpH7-B3 variant T335_07I/GpL16-k0 (antibody, human IgG1, kappa)
# heavy: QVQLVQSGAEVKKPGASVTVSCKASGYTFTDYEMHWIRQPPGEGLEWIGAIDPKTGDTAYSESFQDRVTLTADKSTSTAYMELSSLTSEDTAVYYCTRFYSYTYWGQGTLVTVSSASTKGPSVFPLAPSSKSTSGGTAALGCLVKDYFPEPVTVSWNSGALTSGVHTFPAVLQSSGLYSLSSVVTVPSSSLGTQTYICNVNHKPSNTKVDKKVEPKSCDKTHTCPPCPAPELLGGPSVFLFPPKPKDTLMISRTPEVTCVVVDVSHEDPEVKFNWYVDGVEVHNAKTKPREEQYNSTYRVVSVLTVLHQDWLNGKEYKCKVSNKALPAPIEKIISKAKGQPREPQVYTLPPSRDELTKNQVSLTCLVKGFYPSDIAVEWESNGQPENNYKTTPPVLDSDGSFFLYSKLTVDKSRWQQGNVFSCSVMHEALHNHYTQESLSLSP
# light: B1 light
# notes: both H chains altered; also called Ho Ab T335_07I
# B53: GpH7-B3 variant T335_10E/GpL16-k0 (antibody, human IgG1, kappa)
# heavy: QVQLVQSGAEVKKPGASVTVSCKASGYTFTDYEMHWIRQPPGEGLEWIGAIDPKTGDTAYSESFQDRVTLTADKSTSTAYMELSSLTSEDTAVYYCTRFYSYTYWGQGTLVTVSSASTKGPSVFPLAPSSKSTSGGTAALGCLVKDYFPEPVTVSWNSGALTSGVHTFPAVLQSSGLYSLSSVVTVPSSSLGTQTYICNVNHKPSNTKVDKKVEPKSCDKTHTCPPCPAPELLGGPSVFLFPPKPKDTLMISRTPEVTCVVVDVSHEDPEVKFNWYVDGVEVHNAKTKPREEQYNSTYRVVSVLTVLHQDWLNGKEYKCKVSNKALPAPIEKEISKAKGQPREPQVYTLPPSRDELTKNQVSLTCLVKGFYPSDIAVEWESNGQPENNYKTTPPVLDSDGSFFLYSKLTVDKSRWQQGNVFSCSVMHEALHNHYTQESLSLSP
# light: B1 light
# notes: both H chains altered; also called Ho Ab T335_10E
# B54: GpH7-A5/GpH7-B3 variant A330_05P/GpL16-k0 (antibody, human IgG1, kappa)
# heavy 1: not shown
# heavy 2: not shown
# light: B1 light
# notes: one H chain altered; also called He Ab A330_05P
# B55: GpH7-A5/GpH7-B3 variant A330_07I/GpL16-k0 (antibody, human IgG1, kappa)
# heavy 1: not shown
# heavy 2: not shown
# light: B1 light
# notes: one H chain altered; also called He Ab A330_07I
# B56: GpH7-A5/GpH7-B3 variant E333_02A/GpL16-k0 (antibody, human IgG1, kappa)
# heavy 1: not shown
# heavy 2: not shown
# light: B1 light
# notes: one H chain altered; also called He Ab E333_02A
# B57: GpH7-A5/GpH7-B3 variant E333_03V/GpL16-k0 (antibody, human IgG1, kappa)
# heavy 1: not shown
# heavy 2: not shown
# light: B1 light
# notes: one H chain altered; also called He Ab E333_03V
# B58: GpH7-A5/GpH7-B3 variant E333_04F/GpL16-k0 (antibody, human IgG1, kappa)
# heavy 1: not shown
# heavy 2: not shown
# light: B1 light
# notes: one H chain altered; also called He Ab E333_04F
# B59: GpH7-A5/GpH7-B3 variant E333_13S/GpL16-k0 (antibody, human IgG1, kappa)
# heavy 1: not shown
# heavy 2: not shown
# light: B1 light
# notes: one H chain altered; also called He Ab E333_13S
# B60: GpH7-A5/GpH7-B3 variant E333_20W/GpL16-k0 (antibody, human IgG1, kappa)
# heavy 1: not shown
# heavy 2: not shown
# light: B1 light
# notes: one H chain altered; also called He Ab E333_20W
# Biological target: T1, FcγRIIIa extracellular domain with C-terminal His tag (human, UniProt P08637 17-208)
# Assay: SPR (Biacore), both H chains altered; HoCon Ab GpH7-B3/GpL16-k0 = 100
# T1 sequence (P08637 17-208): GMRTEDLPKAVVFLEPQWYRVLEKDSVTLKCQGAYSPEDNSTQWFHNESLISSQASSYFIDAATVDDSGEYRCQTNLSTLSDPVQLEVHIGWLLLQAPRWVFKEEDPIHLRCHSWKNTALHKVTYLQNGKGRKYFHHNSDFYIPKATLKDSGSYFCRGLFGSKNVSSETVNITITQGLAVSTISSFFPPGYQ
row,Binder,Ho/Con_3a
1,B1,56.6%
2,B2,93%
3,B3,93.3%
4,B4,86.5%
5,B5,87.1%
6,B6,95.1%
7,B7,90.9%
8,B8,41.6%
9,B9,58.3%
10,B10,90.3%
11,B11,95.4%
12,B12,95.8%
13,B13,49.9%
14,B14,98.2%
15,B15,52.8%
16,B16,64.7%
17,B17,37.1%
18,B18,-0.1%
19,B19,0.8%
20,B20,88%
21,B21,99.8%
22,B22,95.6%
23,B23,97.2%
24,B24,99%
25,B25,87.8%
26,B26,97.6%
27,B27,91.5%

row,Binder,Ho/Con_3a
1,B28,99.5%
2,B29,97.7%
3,B30,91.8%
4,B31,90.5%
5,B32,109%
6,B33,118%
7,B34,104%
8,B35,104%
9,B36,110%
10,B37,107%
11,B38,101%
12,B39,134%
13,B40,114%
14,B41,104%
15,B42,150%
16,B43,108%
17,B44,145%
18,B45,160%
19,B46,107%
20,B47,100%
21,B48,103%
22,B49,106%
23,B50,100%
24,B51,102%
25,B52,107%
26,B53,102%

# Biological target: T1, FcγRIIIa extracellular domain with …
# Assay: SPR (Biacore), one H chain altered; HeCon Ab GpH7-A5/GpH7-B3/GpL16-k0 = 100
row,Binder,He/Con_3a
1,B54,155%
2,B55,103%
3,B56,105%
4,B57,103%
5,B58,101%
6,B59,103%
7,B60,101%
